This assay addresses T1, CD40/FC (CD40 ECD/FC chimera-His tag) (UniProt P25942 21-193, limits assumed).
T1 construct: extracellular domain; Bought reagent
Nature of the assay: Direct Bind ELISA, antigen on plate; N-terminal VD.

Our source for the EC50 values is US20100260668A1 (published 2010).

Usually EC50 stands for the concentration at which the effect is half-maximal. A lower EC50 goes with higher potency in that assay.

T1 sequence (P25942 21-193 limits assumed, change not shown): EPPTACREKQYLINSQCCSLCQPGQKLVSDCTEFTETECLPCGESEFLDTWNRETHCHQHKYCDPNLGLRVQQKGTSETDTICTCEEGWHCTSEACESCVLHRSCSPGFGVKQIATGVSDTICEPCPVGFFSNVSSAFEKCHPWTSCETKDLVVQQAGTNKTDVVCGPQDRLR
Description: Enzyme Linked Immunosorbent Assays to screen for antibodies that bind a desired target antigen were performed as follows. […] Plates were washed four times with PBS containing 0.02% Tween 20. Plates were blocked by the addition of 300 μL/well blocking solution (non-fat dry milk powder, various retail suppliers, diluted to 2% in PBS) for ½ hour at room temperature. Plates were washed four times after blocking with PBS containing 0.02% Tween 20.
Alternatively, one hundred microliters per well of 10 μg/ml of Histidine (His) tagged desired target antigen (R&D Systems, Minneapolis, Minn.) was added to ELISA plates coated with monoclonal mouse anti-polyHistidine antibody as described above and incubated for 1 hour at room temperature. Wells were washed four times with PBS containing 0.02% Tween 20.
One hundred microliters of antibody or DVD-Ig preparations diluted in blocking solution as described above was added to the desired target antigen plate or desired target antigen/FC fusion plate or the anti-polyHistidine antibody/His tagged desired target antigen plate prepared as described above and incubated for 1 hour at room temperature. Wells are washed four times with PBS containing 0.02% Tween 20.

B1: DVD010 (CD-40 and CD-20 DVD-Ig) (bispecific antibody, IgG1)
VH: QVQLVESGGGVVQPGRSLRLSCAASGFTFSSYGMHWVRQAPGKGLEWVAVISYEESNRYHADSVKGRFTISRDNSKITLYLQMNSLRTEDTAVYYCARDGGIAAPGPDYWGQGTLVTVSSASTKGPQVQLQQPGAELVKPGASVKMSCKASGYTFTSYNMHWVKQTPGRGLEWIGAIYPGNGDTSYNQKFKGKATLTADKSSSTAYMQLSSLTSEDSAVYYCARSTYYGGDWYFNVWGAGTTVTVSA
VL: DIVMTQSPLSLTVTPGEPASISCRSSQSLLYSNGYNYLDWYLQKPGQSPQVLISLGSNRASGVPDRFSGSGSGTDFTLKISRVEAEDVGVYYCMQARQTPFTFGPGTKVDIRRTVAAPQIVLSQSPAILSPSPGEKVTMTCRASSSVSYIHWFQQKPGSSPKPWIYATSNLASGVPVRFSGSGSGTSYSLTISRVEAEDAATYYCQQWTSNPPTFGGGTKLEIKR
notes: Outer AB009, inner AB001; HC vector V1 (wild-type hIgG1 constant), LC vector V2 (kappa constant); also called DVD010H; DVD010L
B1 returned an EC50 of 0.82 nM.
